± gives the uncertainty stated by the source.

The data set can be described thus: amyloid nucleation score (Sup35N fusion, yeast selection) (log enrichment); library NNK1; higher = more nucleation; inactive = no reads after selection. The essentials:
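Sup35N was fused to peptides of 20 random codons and expressed in psi-negative yeast, which were induced with 100 μM copper sulfate for 24 hours and then grown on medium lacking adenine and uracil for 7 days at 30°C. Plasmid inserts from input and output were sequenced on Illumina. The nucleation score is the DiMSum log enrichment of output over input reads, centred on the mode score of non-aggregating sequences. Sequences with under 100 input reads were left out, and random libraries had three technical output replicates.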
In turn, LLSYPIPDMYSIEATTKRRI registered an amyloid nucleation score of 0.133 ± 1.4.

Take YMVHMK: the amyloid nucleation score worked out at 0.121 ± 0.76.

For the substance WLWSQLVESCGRVRCSGGSG, the amyloid nucleation score is 1.37 ± 0.5.

The substance VGMSSDCAGSLRRWRLWARL yielded an amyloid nucleation score of 4.55 ± 0.1.

For GHSSRLRFT, the amyloid nucleation score is -0.42 ± 0.48.

The substance SCKGQPARVTCETRFTGYER gave an amyloid nucleation score of 2.32 ± 0.49.

As to YSFRAIDTQLTQTLTWLLIR, the amyloid nucleation score was -0.563 ± 0.53.

Substance PALWWSMYSIQCPEEIGGAV showed an amyloid nucleation score of 0.405 ± 0.55.

Regarding FFVSIELITTRLLISQHNSY, the amyloid nucleation score is -0.689 ± 0.89.

Take AYHNDWR: the amyloid nucleation score is -0.85 ± 0.76.

For LCGEGRFLQTWRSLSFP, the amyloid nucleation score was -0.865 ± 0.39.

SQCLSKLLSIDISRCWAGQM had an amyloid nucleation score of 2.59 ± 0.46.

As to LHLPHLRIRTNYSGLILSVM, the amyloid nucleation score is -0.513 ± 0.56.

As for VGNEWSVLRLGGGVGSIFL, the amyloid nucleation score is -1.07 ± 1.3.

The substance GITLSIAFLKAYLCRSKGGS registered an amyloid nucleation score of 2.62 ± 0.14.

Consider LFSIGALY, for which the amyloid nucleation score was -0.035 ± 0.2.

With CRYTITFLVQKYLLDFFA, the amyloid nucleation score was -0.074 ± 0.35.

As for HLPTKLPSRIRYRCYDFHVI, the amyloid nucleation score is -0.546 ± 0.97.

Substance ARGTGGSKAAPNYLVYTGCR showed an amyloid nucleation score of 0.684 ± 0.48.

SSDGVSMLC came in with an amyloid nucleation score of 0.33 ± 0.47.

On to YSRSVGYRRYFI, for which the amyloid nucleation score entry is “inactive”.

Substance TRYMICSL yielded an amyloid nucleation score of 0.121 ± 0.6.

Take WVFEPMEWFDYKFSYHF: the amyloid nucleation score was -0.255 ± 0.42.

The substance FTMFFPMGSVC gave an amyloid nucleation score of 0.292 ± 0.64.

With RKFAFKSIWSWYRI, the amyloid nucleation score amounted to 0.533 ± 0.54.

In the case of YAGVRLWRRVWRAKTACSVA, the amyloid nucleation score is 0.169 ± 0.56.

IAVPRRQPINLSN returned an amyloid nucleation score of 0.668 ± 0.56.

NRARPLVSFMILGSVSECYA came in with an amyloid nucleation score of 0.767 ± 0.21.

Take NSWDISRSMNVLGNRVNRFP: the amyloid nucleation score was -0.765 ± 0.37.

The substance SQYQTLDVHIKGNVCSNLDM yielded an amyloid nucleation score of 0.012 ± 1.6.

Substance QDDISLKFLGFGMIVSLIMF displayed an amyloid nucleation score of 0.007 ± 0.24.

Consider VRMKIGNFSCCRYWKPPLYT, for which the amyloid nucleation score was found to be 1.29 ± 0.61.

Substance LELTC displayed an amyloid nucleation score of 1.6 ± 0.53.

As to VEIYWWGYPPKNSI, the amyloid nucleation score was -0.239 ± 0.39.

As for GIFSNLEVGYKPKN, the amyloid nucleation score is -0.694 ± 0.39.

Consider SPGVDGWNPWVDTVLRKVSK, for which the amyloid nucleation score is -0.776 ± 0.61.

Regarding ARWKKQWFYT, the amyloid nucleation score came to 0.796 ± 0.58.

Take LRKGTVRLSSFEKWYMVRTG: the amyloid nucleation score was -0.701 ± 0.7.

With KWGHSENVVVYFDGAFSWVS, the amyloid nucleation score came to 0.16 ± 0.6.

The substance TTDSVDDTRKYAYGFIACGV displayed an amyloid nucleation score of 0.114 ± 0.47.

On to LSSIATRKHELLNFPV, for which the amyloid nucleation score amounted to 0.294 ± 0.63.

VIMCVSRCTVRCV displayed an amyloid nucleation score of 0.486 ± 0.52.

SRCYMDSIV showed an amyloid nucleation score of 0.101 ± 0.36.

As to SYFKCMIILSRMLLVVLEI, the amyloid nucleation score is -0.272 ± 0.65.

For FFLPILGPW, the amyloid nucleation score is -0.729 ± 1.7.

The substance NFRLCLWSDAGLIGKAVFGY registered an amyloid nucleation score of 0.718 ± 0.39.

In the case of FQGMYWNGFSSSSMSAATPR, the amyloid nucleation score came out at 0.157 ± 0.52.

With FVSTVYLY, the amyloid nucleation score is 5.35 ± 0.064.

WVYHRQKSCAIFRAEIM: the amyloid nucleation score was -0.088 ± 0.48.

YSGRRQETNVGRLRSNWGGL: the amyloid nucleation score is -0.568 ± 0.39.

As for QCSMGGRYVRQDS, the amyloid nucleation score was -0.197 ± 0.6.

As to SNLHNCLRGNGCWVIAIDVV, the amyloid nucleation score is -0.251 ± 0.81.

For GFTSHFRYLWHILIRYWSNP, the amyloid nucleation score came to 0.442 ± 0.39.

In the case of LNGIFNNPY, the amyloid nucleation score is -0.512 ± 0.78.

Substance DKDDEIY registered an amyloid nucleation score of 1.42 ± 0.76.

For LLYIILFRNYILYKLWIRFA, the amyloid nucleation score is 0.572 ± 0.3.

With FCVTNPWS, the amyloid nucleation score came out at 0.308 ± 0.58.

Take EVSLVVYTYVF: the amyloid nucleation score worked out at 0.697 ± 0.69.

For REANNPCRVNTKSIVVRLEV, the amyloid nucleation score is -0.787 ± 0.32.

With FCICNRKRHNPSPEKKNA, the amyloid nucleation score was -1.36 ± 0.91.

FMLERYFQ: the amyloid nucleation score is -0.157 ± 0.24.

NYFFAAACKKVVQGQPCSF yielded an amyloid nucleation score of 1.59 ± 0.29.

The substance YFVQGNMNLSHCTCWCGNRT had an amyloid nucleation score of 7.589 ± 0.046.

As for QMKAVLRLRINICCPQVRGT, the amyloid nucleation score stood at 4.66 ± 0.1.

For the substance CRVMEKIEVCYIRYFFSWLD, the amyloid nucleation score came to 0.574 ± 0.39.

The substance HSCSVPLWIWRFSVRAKGCK yielded an amyloid nucleation score of 0.562 ± 0.57.

Take VESVSWVCDRCTGLVLVWSG: the amyloid nucleation score result is “inactive”.

With VEVKSCIWDFGCNQRGYGDG, the amyloid nucleation score was 5.32 ± 0.079.

On to TSVLLQHGLWIGS, for which the amyloid nucleation score worked out at 0.685 ± 0.34.

Turning to TLSTRTIHSCSEYYSGMCVL, the amyloid nucleation score was 0.089 ± 0.93.

Regarding TVFWRYCSRVLNDKFGQFWV, the amyloid nucleation score was 0.043 ± 0.35.

With GKNWVRPRPGLVTNTKEYES, the amyloid nucleation score was -0.46 ± 0.76.

For the substance VPWFLHELQTVLAKVNRGQR, the amyloid nucleation score is -0.165 ± 0.33.

VLGYSRPLSDTSSVGTIIPA registered an amyloid nucleation score of 0.172 ± 0.38.

Turning to NIGMRDTGVLLDKLCQV, the amyloid nucleation score is -0.594 ± 0.65.

With NCYLLFFCRLSSLSYAYQVY, the amyloid nucleation score is -0.815 ± 1.2.

Regarding MCRVHFRNVTFCGALARSVL, the amyloid nucleation score is -0.751 ± 0.43.

On to CLNGMQPHKWFGMCVWVCPC, for which the amyloid nucleation score is -0.212 ± 0.58.

With RMMLHRGLYYNVMLNYSLI, the amyloid nucleation score amounted to 0.86 ± 0.47.

With RFIGVQQMVCVTYNWFKVLG, the amyloid nucleation score amounted to 1.16 ± 0.19.

MTALFGRVSG: the amyloid nucleation score is -0.134 ± 1.1.

Regarding TYPYRPLHSPFTNRFLSPNG, the amyloid nucleation score was -0.926 ± 0.73.

In turn, RLVCKFRMRKSNRGVRNMLC gave an amyloid nucleation score of 0.797 ± 0.53.

Turning to GSYWWDCFVNGGYEKFCTVP, the amyloid nucleation score was 0.191 ± 0.68.

Turning to TFFVVCKSTLILYEI, the amyloid nucleation score is -0.186 ± 0.52.

Substance NFLESSFYFFALVSASLSFN displayed an amyloid nucleation score of 0.527 ± 0.25.

For the substance MMIWNSNSEQVRCIIGMPWL, the amyloid nucleation score came out at 4.79 ± 0.085.

WIFTREQAFFSDRCLAASSK returned an amyloid nucleation score of 0.649 ± 0.76.

As to YEGELTSKKFFAQVNSRVGG, the amyloid nucleation score is -0.581 ± 1.4.

For NYFEKR, the amyloid nucleation score was -0.261 ± 0.47.

Turning to WRVSVKVVSAELEGMRNFAV, the amyloid nucleation score is 0.259 ± 0.49.

LFESGSRDFLRQKLTFGTVP yielded an amyloid nucleation score of 0.066 ± 0.7.

Take SVIYHRCLFLI: the amyloid nucleation score amounted to 6.906 ± 0.048.

In turn, SVYVLSRGAVSMSVWHR had an amyloid nucleation score of 3.64 ± 0.15.

The substance YFQQEVQFEWGCVWREWCDC registered an amyloid nucleation score of 0.197 ± 0.52.

The substance FLINGISSLCGLVVGLKFMD came in with an amyloid nucleation score of 0.755 ± 0.34.

For SLSCTTLCLEYYRYCVRTYG, the amyloid nucleation score was 0.196 ± 0.7.

Consider IGHGTHG, for which the amyloid nucleation score was found to be 0.282 ± 0.49.

For the substance IGIPVLGMNINYCFLR, the amyloid nucleation score came to 0.931 ± 0.29.

As to HGGKCLSMRYRDCALWTFQG, the amyloid nucleation score was 0.031 ± 1.2.

As for KVHTGTSTRLKLYMHSTLRT, the amyloid nucleation score came out at 0.454 ± 0.25.

For the substance YVESGTFTDPRFWVSFAVCF, the amyloid nucleation score was 0.791 ± 0.54.

Consider LFDVYN, for which the amyloid nucleation score is -0.549 ± 0.49.

Regarding LDKSGSLVPKRKVTLKDKQR, the amyloid nucleation score is -0.375 ± 0.41.

MLVFYCNRN registered an amyloid nucleation score of 2.88 ± 0.22.

TLKFGSYQAVRLSHSGKPDD: the amyloid nucleation score stood at 2.55 ± 0.1.

TCFSSILKDMVWRNRRRWGY came in with an amyloid nucleation score of 0.216 ± 0.84.

On to MACVVRVLGVMVHLKMLVGL, for which the amyloid nucleation score was -1.11 ± 1.

RSSKGFMCMEMCLGWGQSTS: the amyloid nucleation score was 3.41 ± 0.095.

NSSCIIPMLWWGHNHHWC came in with an amyloid nucleation score of 3.43 ± 0.12.

For the substance SPQQVSLVGWSRWTEPRTS, the amyloid nucleation score is -0.211 ± 0.36.

On to QTFTYKCFIHYFMRMWLVQI, for which the amyloid nucleation score was -0.005 ± 0.75.

The substance EQNCVGVCSELNVFYGACVI had an amyloid nucleation score of 2.12 ± 0.48.

Consider SCRLIDWVPSHSRYRTFCCE, for which the amyloid nucleation score is -0.386 ± 0.37.

As for TSENLNSASNLSSYVADMPI, the amyloid nucleation score is 0.273 ± 0.35.

THDLRLMIGHDCDTVNGYSR: the amyloid nucleation score was -0.725 ± 0.43.

TQEKMSVGYYASNSLFWSML: the amyloid nucleation score is 0.36 ± 1.2.

For the substance QWCVKESAFIYEYRLSGDCL, the amyloid nucleation score is -0.584 ± 0.74.

In the case of LGKPVWVQEAKLDADNLWCV, the amyloid nucleation score is -0.438 ± 0.49.

For AQTPRLLKVG, the amyloid nucleation score was -1.01 ± 1.8.

Take GLKIQPLCS: the amyloid nucleation score came out at 0.373 ± 0.49.

Turning to VGPIFLHTLRRSVN, the amyloid nucleation score is -0.532 ± 0.83.

In the case of VISIFVEF, the amyloid nucleation score is 3.69 ± 0.12.

In turn, LYPKSFYTKYYEWYTSGLIF registered an amyloid nucleation score of 0.236 ± 0.57.

As to NTGRISYFFVVSNPSPYSLR, the amyloid nucleation score is 3.75 ± 0.058.

On to LHGPWVVYFELSSIFTLTYQ, for which the amyloid nucleation score is -0.478 ± 0.29.

On to ALTVTCFLVPGSYIIHVGMK, for which the amyloid nucleation score was -0.332 ± 0.37.

On to MQMSLTDSGGVYVDGLVGYL, for which the amyloid nucleation score was -0.239 ± 0.31.

As to QKSVWKSITGRASFYSSLVR, the amyloid nucleation score entry was “inactive”.

WMRKVIPTNGTVDIETSS displayed an amyloid nucleation score of 0.438 ± 0.33.

Regarding LSDWYNLRRWRTVTWAQQLH, the amyloid nucleation score is -0.4 ± 1.3.

NSPGYDQVNAYVGFKRRTMS returned an amyloid nucleation score of 0.128 ± 0.64.

Regarding VLLWVGLTYATGLGRRSSLF, the amyloid nucleation score is -1.3 ± 0.97.

On to TAYAFNDCEFEPVWSRIVGN, for which the amyloid nucleation score is -0.412 ± 0.48.

In turn, YCCSCASCGPGVNRSWGN registered an amyloid nucleation score of 1.57 ± 0.16.

Regarding SISNTLLGLEEWLPNYVNVF, the amyloid nucleation score was 0.871 ± 0.49.

Turning to DKISWLSHQLRWDSRMSNLE, the amyloid nucleation score stood at 1.1 ± 0.66.

Turning to QVYYVCGYTSDKLLKNSYNN, the amyloid nucleation score was -0.125 ± 0.45.

Turning to SSGYSGSCVNINWC, the amyloid nucleation score is 6.412 ± 0.045.
